Results from IntAct's records for PubMed 22439934.

B1: Zinc finger protein GLI1 (Homo sapiens), P08151 (parent)
chain: MFNSMTPPPISSYGEPCCLRPLPSQGAPSVGTEGLSGPPFCHQANLMSGPHSYGPARETNSCTEGPLFSSPRSAVKLTKKRALSISPLSDASLDLQTVIRTSPSSLVAFINSRCTSPGGSYGHLSIGTMSPSLGFPAQMNHQKGPSPSFGVQPCGPHDSARGGMIPHPQSRGPFPTCQLKSELDMLVGKCREEPLEGDMSSPNSTGIQDPLLGMLDGREDLEREEKREPESVYETDCRWDGCSQEFDSQEQLVHHINSEHIHGERKEFVCHWGGCSRELRPFKAQYMLVVHMRRHTGEKPHKCTFEGCRKSYSRLENLKTHLRSHTGEKPYMCEHEGCSKAFSNASDRAKHQNRTHSNEKPYVCKLPGCTKRYTDPSSLRKHVKTVHGPDAHVTKRHRGDGPLPRAPSISTVEPKREREGGPIREESRLTVPEGAMKPQPSPGAQSSCSSDHSPAGSAANTDSGVEMTGNAGGSTEDLSSLDEGPCIAGTGLSTLRRLENLRLDQLHQLRPIGTRGLKLPSLSHTGTTVSRRVGPPVSLERRSSSSSSISSAYTVSRRSSLASPFPPGSPPENGASSLPGLMPAQHYLLRARYASARGGGTSPTAASSLDRIGGLPMPPWRSRAEYPGYNPNAGVTRRASDPAQAADRPAPARVQRFKSLGCVHTPPTVAGGGQNFDPYLPTSVYSPQPPSITENAAMDARGLQEEPEVGTSMVGSGLNPYMDFPPTDTLGYGGPEGAAAEPYGARGPGSLPLGPGPPTNYGPNPCPQQASYPDPTQETWGEFPSHSGLYPGPKALGGTYSQCPRLEHYGQVQVKPEQGCPVGSDSTGLAPCLNAHPSEGPPHPQPLFSHYPQPSPPQYLQSGPYTQPPPDYLPSEPRPCLDFDSPTHSTGQLKAQLVCNYVQSQQELLWEGGGREDAPAQEPSYQSPKFLGGSQVSPSRAKAPVNTYGPGFGPNLPNHKSGSYPTPSPCHENFVVGANRASHRAAAPPRLLPPLPTCYGPLKVGGTNPSCGHPEVGRLGGGPALYPPPEGQVCNPLDSLDLDNTQLDFVAILDEPQGLSPPPSHDQRGSSGHTPPPSGPPNMAVGNMSVLLRSLPGETEFLNSSA
partner: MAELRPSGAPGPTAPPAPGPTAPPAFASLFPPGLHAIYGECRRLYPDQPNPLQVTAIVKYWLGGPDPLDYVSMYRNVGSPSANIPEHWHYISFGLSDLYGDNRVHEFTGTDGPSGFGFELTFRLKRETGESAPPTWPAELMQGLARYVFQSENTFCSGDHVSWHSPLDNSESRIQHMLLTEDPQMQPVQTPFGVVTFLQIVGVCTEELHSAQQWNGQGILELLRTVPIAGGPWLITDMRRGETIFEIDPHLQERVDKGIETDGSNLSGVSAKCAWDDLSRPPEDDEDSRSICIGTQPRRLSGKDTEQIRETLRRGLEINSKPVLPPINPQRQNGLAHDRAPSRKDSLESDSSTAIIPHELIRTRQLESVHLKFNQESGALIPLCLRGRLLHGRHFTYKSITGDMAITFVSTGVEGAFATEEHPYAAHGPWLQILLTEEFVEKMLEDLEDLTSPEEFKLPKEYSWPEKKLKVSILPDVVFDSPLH
B2: Zinc finger protein GLI1 (Homo sapiens), P08151 (parent)
chain: B1 chain

Variants of: B1
Conditions: with sufu_human SUFU

effect of a mutation on the interaction	Variant
decreasing interaction	S84E

Variants of: B2
Conditions: with RPS6KB1, P23443-2
Sequence of RPS6KB1, P23443-2 (P23443 24-525): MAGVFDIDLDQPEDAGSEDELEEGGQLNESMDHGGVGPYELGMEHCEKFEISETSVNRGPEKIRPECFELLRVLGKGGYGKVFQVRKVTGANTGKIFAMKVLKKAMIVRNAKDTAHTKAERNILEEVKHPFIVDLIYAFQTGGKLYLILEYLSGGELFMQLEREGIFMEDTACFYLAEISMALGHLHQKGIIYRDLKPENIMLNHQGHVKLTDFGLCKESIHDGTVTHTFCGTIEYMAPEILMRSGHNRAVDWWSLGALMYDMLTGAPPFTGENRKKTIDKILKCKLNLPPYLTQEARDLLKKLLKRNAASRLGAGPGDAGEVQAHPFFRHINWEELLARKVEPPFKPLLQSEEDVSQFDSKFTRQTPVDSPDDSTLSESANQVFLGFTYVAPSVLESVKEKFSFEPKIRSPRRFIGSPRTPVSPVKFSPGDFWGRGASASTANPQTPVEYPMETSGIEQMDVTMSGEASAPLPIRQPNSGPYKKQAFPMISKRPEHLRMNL

effect of a mutation on the interaction	Variant
disrupting interaction	S84A
